Measured values taken from patent US11938195B2, “Upconversion nanoparticle peptide conjugates” (BP InnoMed Limited, priority 2021, dated 2024).
Where no end group is shown, it is not given here. [ ]: non-standard residue; d: D form. Ahx = NCCCCCC(=O)O

What was measured:
[1] = tested on: C666 derived xenografts; assay: In vivo suppression assay, C666 xenograft
From the text: To determine the antitumor efficacy of the new nanoprobes in vivo, their therapeutic effects were investigated in C666 and HeLa derived xenografts in BALB/c nude mice. The mice were randomly divided into five groups: (1) control (PBS), (2) UCNP, (3) UCNP-P5, (4) UCNP-P6, (5) UCNP-P7. In order to recapitulate the clinical setting of drug delivery, intravenous injection (via a tail vein) was used to deliver these agents to the immunocompromised animal.
In vivo suppression assays: EBV-positive C666 and EBV-negative HeLa cells were suspended in 200 μL of serum-free RMPI 1640 and DMEM respectively. Female BALB/c nude mice (6-8 weeks) which obtained from HKU were then injected with the cells in the right flank. Intravenous injections were performed when the average tumor volumes reached ˜200 mm^3. 0.25 mg/tumor dose of UCNP and UCNP-Pn [n=5, 6 and 7 (SEQ ID NO: 5, 6, 7)] in […] PBS buffer were injected through tail vein of mice using a 24-gauge syringe. Mice injected with the same volume of PBS buffer served as control. The body weight and tumor volumes of the mice were measured three times per week; in which the latter is calculated by (L×W^2)/2, where L and W are the longer and shorter tumor dimensions respectively. Intravenous injection at the tail vein were performed twice a week and the mice were sacrificed after 33-day experimental period; the tumors were extracted and weighed. The treatment groups are unknown to the investigators for the experimental and data analysis processes. The animal experiments conducted were approved by the Department of Health of the HKSAR Government. All animal procedures are within the Guidelines for Care and Use of Laboratory Animals of HKBU and approved by the Animal Ethics Committee of HKBU.
Hematoxylin and eosin (H&E) staining: In general, the transplanted C666 and HeLa derived tumor tissues were collected and fixed with formalin, followed by embedding in paraffin. The histologic sections were then stained with hematoxylin and eosin. Other major organ tissues (heart, liver, spleen, lung, kidney, brain) were conducted in the same procedures.

[2] = tested on: C666 cells; assay: Cellular uptake by ICP-MS, C666; format: cell-based
Description: (§1) Subsequently, the quantitative distribution and uptake efficiency of nanoprobes in vitro in C666, HK1, HK1-LMP1 and LCL3 cells lines were monitored and investigated by evaluating the lanthanide content originating from the nanoprobes using inductively coupled plasma mass spectrometry (ICP-MS).
(§2) After co-incubation, the cell culture medium containing the nanoprobes was removed, and the exposed cells were further rinsed with 1 mL PBS three times. After that, the cells were trypsinized and re-dispersed in 1 mL cell medium. The cells were collected by centrifugation at 1500 rpm, and the cell pellet was digested in 100 μL concentrated HNO3 (69%) at room temperature for 3 h. Then, each cell pellet in centrifuge tube was filled up to 10 mL with 1% HNO3. The cellular uptake of all the nanoprobes was recorded via an Agilent 7500 series ICP-MS instrument. All ICP experiments were performed three times, and the values of Gd concentration (ppm) obtained were calculated and averaged.

[3] = Peptide release from nanoprobes under various time intervals (UV-vis absorbance); format: physicochemical; details: 0.5 mg/mL
From the text: The stability and capability of cleavage of the pH linker were also studied. […] More importantly, TEM images of UCNP-P5 at different pH buffers were observed and investigated in FIG. 1, providing direct evidence on pH-responsive peptide release from UCNP.

[4] = tested on: HK1-LMP1 cells; assay: Cellular uptake by ICP-MS, HK1-LMP1; format: cell-based
Description: as §1, §2

[5] = tested on: EBV-positive C666 cells; assay: Two-photon confocal imaging, C666; format: cell-based; details: mainly from the nuclei, 24 h incubation
Description: After the study of cellular uptake, fluorescent confocal microscopy was used to study the sub-cellular localization with the same set of EBV-/LMP1-positive and -negative cell lines. All these cell lines were treated with as-prepared samples for different time intervals of 1 h, 3 h, 6 h, 12 h and 24 h. Fluorescence signals in the cells were imaged under 980 nm excitation.
The cells were then co-stained with 0.05 mM nuclear dye DRAQ5 for 0.5 h for confocal imaging with a Leica SP8 confocal microscope equipped with a coherent femtosecond laser (690-1050 nm), argon laser (432 nm, 457 nm and 488 nm), He—Ne laser (632 nm), UV lamp. A stage-top cell culture chamber was also used to maintain the atmospheric conditions of 2-7% CO2 and a temperature of 37° C.

[6] = tested on: p65; assay: Western blot of p65 (NF-κB) in LCL3 cells; format: cell-based
From the text: NF-κB signaling pathway is critical for the survival of EBV-infected tumor cells. Here we investigated if our nanoprobes could affect this oncogenic pathway. EBV-positive LCL3 and C666 cells were used as models, EBV-negative HK1 cells were used as control and Western blot was used to analyze the protein expression of p65, a major transcription factor in the NF-κB family. […] GAPDH and Histone are regarded as internal standards in cytosolic and nuclear fractions, respectively. […] This is consistent with the cellular uptake results.
Western blotting: EBV-positive C666, LCL3 and EBV-negative HK1 cell pellets were treated with phosphatase and protease inhibitors at 0-4° C. for 30 min. The total protein concentrations were calculated by protein absorbance. The protein was resolved by sodium dodecyl sulfate-polyacrylamide gel electrophoresis (SDS-PAGE) and transferred to cellulose filter membranes. The membranes were blocked with 3% BSA in Tris-buffered saline in 0.1% Tween 20 (TBST) for 1 h with gentle shaking and subsequently incubated with primary antibodies (1:1000) in 3% BSA in TBST at 4° C. for overnight. After rinsing with TBST buffer three times, the blots were then incubated with corresponding secondary anti-rabbit antibody (1:6000) for 1 h. After that, the blots were rinsed again with 3% BSA in TBST for 1 h shaking at room temperature. Lastly, the density of bands was determined by image analysis system after washing with TBST buffer three times.

[7] = C666 tumor-bearing mice, 33-day experimental period

For “UCNP-P5: UCNP is NaGdF4:Yb^3+, Er^3+@NaGdF4 and plurality of polypeptides is Ahx-YFMVFGGRrRKGGFWLY (SEQ ID NO: 5), pH-sensitive imine linker ([Ahx]YFMVFGGR[dR]RKGGFWLY; also: conjugated to UCNP NaGdF4:Yb3+,Er3+@NaGdF4 via pH-sensitive imine linker)”, the “Effect on average tumor size” value ([1]; 12.5 mg/kg, intravenous (tail vein), twice a week, 33 days) was “significantly reduce the average tumor size”, the “Tumor uptake relative to UCNP-P6 and UCNP-P7 (ICP-MS biodistribution)” value ([1]; C666 tumor, Gd ions) was about 3 fold and the Body weight [1, 7] was “slightly increased”. The Various organ weights [1, 7] was “slightly increased”, the “Cellular uptake (Gd amount by ICP-MS)” value ([2]; 50 μg/mL) was “largest amount of cellular uptake” and the “Gd amount relative to UCNP-P4” value ([2]; 24 h incubation) was “over twice”. It also gave a Peptide release rate ([3]; 1 h) of 0%, a Peptide release rate ([3]; 3 h) of 0% and a Peptide release rate ([3]; 6 h) of 0.1%. For the same substance, the Peptide release rate ([3]; 12 h) was 0.5%, the Peptide release rate ([3]; 24 h) was 0.7% and the Peptide release rate ([3]; 3 day) was 0.8%. For the same substance, the Peptide release rate ([3]; 5 day) was 1.1%, the Peptide release rate ([3]; 7 day) was 1.9% and the “Uptake relative to UCNP-P6 and UCNP-P7” value ([4]; HK1-LMP1 (HK1 / HK1-LMP1 cell pair)) was “two-fold”. For the same substance, the “Cellular uptake (Gd amount by ICP-MS)” value ([4]; HK1-LMP1, 50 μg/mL) was “largest amount of cellular uptake”, the “Responsive emission enhancement (lambda scan)” value [5] was “two-fold” and the “Decreased p65 expression, nuclear fraction” value [6] was 86%.
